Experiment [1] deals with T1, PTPRD E406K variant extracellular domain (human, UniProt P23468 21-1265).
T1 construct: extracellular domain; also called FN1 mutant
T1 sequence (looked up): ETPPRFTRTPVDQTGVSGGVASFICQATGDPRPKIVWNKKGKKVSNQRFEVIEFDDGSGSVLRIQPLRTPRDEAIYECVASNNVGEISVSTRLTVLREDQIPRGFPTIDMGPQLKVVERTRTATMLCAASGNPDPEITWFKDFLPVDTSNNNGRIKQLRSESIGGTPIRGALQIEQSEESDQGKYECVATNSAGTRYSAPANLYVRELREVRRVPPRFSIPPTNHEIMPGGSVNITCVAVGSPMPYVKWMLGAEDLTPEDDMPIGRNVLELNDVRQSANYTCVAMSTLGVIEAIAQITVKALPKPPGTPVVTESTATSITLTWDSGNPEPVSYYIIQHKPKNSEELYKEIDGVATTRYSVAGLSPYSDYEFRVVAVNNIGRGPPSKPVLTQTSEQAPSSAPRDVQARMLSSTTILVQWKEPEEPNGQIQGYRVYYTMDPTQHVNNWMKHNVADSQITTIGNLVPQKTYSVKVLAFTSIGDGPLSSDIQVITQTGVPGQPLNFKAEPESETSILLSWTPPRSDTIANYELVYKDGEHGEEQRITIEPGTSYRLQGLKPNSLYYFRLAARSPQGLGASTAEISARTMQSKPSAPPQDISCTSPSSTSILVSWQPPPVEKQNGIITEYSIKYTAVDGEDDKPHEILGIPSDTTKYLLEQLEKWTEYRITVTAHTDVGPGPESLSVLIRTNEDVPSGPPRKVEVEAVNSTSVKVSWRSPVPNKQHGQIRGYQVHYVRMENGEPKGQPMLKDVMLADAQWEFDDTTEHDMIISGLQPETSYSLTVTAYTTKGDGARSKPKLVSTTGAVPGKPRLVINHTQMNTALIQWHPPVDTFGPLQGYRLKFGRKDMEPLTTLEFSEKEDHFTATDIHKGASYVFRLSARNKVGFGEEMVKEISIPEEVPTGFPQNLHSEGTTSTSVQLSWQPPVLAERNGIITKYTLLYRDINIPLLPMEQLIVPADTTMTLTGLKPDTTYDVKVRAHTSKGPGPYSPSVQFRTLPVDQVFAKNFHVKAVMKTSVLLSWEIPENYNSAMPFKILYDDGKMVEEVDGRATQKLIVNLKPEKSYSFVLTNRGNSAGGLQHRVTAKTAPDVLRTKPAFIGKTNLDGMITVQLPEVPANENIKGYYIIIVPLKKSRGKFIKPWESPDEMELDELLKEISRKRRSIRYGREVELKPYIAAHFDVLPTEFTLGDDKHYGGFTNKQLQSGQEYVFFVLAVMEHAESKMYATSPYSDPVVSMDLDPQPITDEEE
The experiment in a line: extracellular interaction screen: pentameric PTPRD variant ECD on ECD-Fc prey (FIG. 5L).

Experiment [2] has as its target T2, PTPRD S431L variant extracellular domain (human, UniProt P23468 21-1265).
T2 construct: extracellular domain; also called FN2 mutant
T2 sequence (looked up): T1 sequence (looked up) with K386E, S411L
The description is as above.

Changes are numbered by the printed parent chain.

B1: LRRC4B extracellular domain (receptor, human, UniProt Q9NT99 36-576, looked up)
chain: AGGGGVAVTSAAGGGSPPATSCPVACSCSNQASRVICTRRDLAEVPASIPVNTRYLNLQENGIQVIRTDTFKHLRHLEILQLSKNLVRKIEVGAFNGLPSLNTLELFDNRLTTVPTQAFEYLSKLRELWLRNNPIESIPSYAFNRVPSLRRLDLGELKRLEYISEAAFEGLVNLRYLNLGMCNLKDIPNLTALVRLEELELSGNRLDLIRPGSFQGLTSLRKLWLMHAQVATIERNAFDDLKSLEELNLSHNNLMSLPHDLFTPLHRLERVHLNHNPWHCNCDVLWLSWWLKETVPSNTTCCARCHAPAGLKGRYIGELDQSHFTCYAPVIVEPPTDLNVTEGMAAELKCRTGTSMTSVNWLTPNGTLMTHGSYRVRISVLHDGTLNFTNVTVQDTGQYTCMVTNSAGNTTASATLNVSAVDPVAAGGTGSGGGGPGGSGGVGGGSGGYTYFTTVTVETLETQPGEEALQPRGTEKEPPGPTTDGVWGGGRPGDAAGPASSSTTAPAPRSSRPTEKAFTVPITDVTENALKDLDDVMKTTK
notes: extracellular domain; ECD-Fc prey; also called NGL-3; netrin-G ligand-3
Consider B1, for which the binding result in experiment [1] and in experiment [2] was “no binding” each time.

The values above are taken from patent publication US20220119490A1 (Genentech, published 2022).
